In PMC5947528:

Molecular target: E. coli 3'-phosphoadenosine 5'-phosphosulfate (PAPS) reductase (E. coli) (UniProt P17854)
UniProt P17854, sequence (P17854 whole entry): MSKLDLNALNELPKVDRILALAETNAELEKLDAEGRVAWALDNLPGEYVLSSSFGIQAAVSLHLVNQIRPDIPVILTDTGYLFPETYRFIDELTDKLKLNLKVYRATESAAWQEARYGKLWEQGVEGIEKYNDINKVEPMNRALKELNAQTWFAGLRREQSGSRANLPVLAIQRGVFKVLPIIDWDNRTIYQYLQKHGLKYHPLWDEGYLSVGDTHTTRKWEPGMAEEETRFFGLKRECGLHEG

Row | Binder | Km of PR for the redoxin as electron donor (PAPS reductase assay) | Vmax of PR with the redoxin as electron donor (PAPS reductase assay) | kcat Km^-1 of PR with the redoxin, percent of that with E. coli Trx1
1 | Arabidopsis thaliana TrxH3 (enzyme) MAAEGEVIACHTVEDWTEKLKAANESKKLIVIDFTATWCPPCRFIAPVFADLAKKHLDVVFFKVDVDELNTVAEEFKVQAMPTFIFMKEGEIKETVVGAAKEEIIANLEKHKTVVAAA | 17.8 µM | 13.2 U mg^-1 | 154%
2 | Arabidopsis thaliana TrxH4 (enzyme) MAAEEGQVIGCHTNDVWTVQLDKAKESNKLIVIDFTASWCPPCRMIAPIFNDLAKKFMSSAIFFKVDVDELQSVAKEFGVEAMPTFVFIKAGEVVDKLVGANKEDLQAKIVKHTGVTTA | 26.1 µM |  | 
3 | human Trx1 (enzyme) MVKQIESKTAFQEALDAAGDKLVVVDFSATWCGPCKMIKPFFHSLSEKYSNVIFLEVDVDDCQDVASECEVKCMPTFQFFKKGQKVGEFSGANKEKLEATINELV |  |  | 59%
4 | Arabidopsis thaliana TrxH1 (enzyme) MASEEGQVIACHTVETWNEQLQKANESKTLVVVDFTASWCGPCRFIAPFFADLAKKLPNVLFLKVDTDELKSVASDWAIQAMPTFMFLKEGKILDKVVGAKKDELQSTIAKHLA |  |  | 18%
5 | Arabidopsis thaliana TrxH2 (enzyme) MGGALSTVFGSGEDATAAGTESEPSRVLKFSSSARWQLHFNEIKESNKLLVVDFSASWCGPCRMIEPAIHAMADKFNDVDFVKLDVDELPDVAKEFNVTAMPTFVLVKRGKEIERIIGAKKDELEKKVSKLRA | 43.1 µM |  | 23%
